Source: the DeepSol protein solubility set

Assay: soluble on expression in E. coli; label from the status in PepcDB or PDB records
In the case of “MIRFCSLYSGSSGNAIFLSTGKTKILIDAGLSGKKITEALVSIGEKPSELSAILVSHEHSDHIKGAGIISRKYDVPIYANENTWAAMENLIGPVSVKNKMYFNTGREFEIGDVIINPFPIPHDAVEPVGFNFFVENSKITTATDIGHMNRELLEYIEGSDFLLIESNHDIEMLKVGPYPWPLKKRILGDKGHLSNEMAGKVVAHLAERGTRCFMLGHLSKENNFPELAYETVRNILKERNIDIERDIKLSVALRDKVGQVVEILEHHHHHH”, the “soluble on expression in E. coli” value is reported as “not soluble”.
For “MAAAAAGAGSGPWAAQEKQFPPALLSFFIYNPRFGPREGQEENKILFYHPNEVEKNEKIRNVGLCEAIVQFTRTFSPSKPAKSLHTQKNRQFFNEPEENFWMVMVVRNPIIEKQSKDGKPVIEYQEEELLDKVYSSVLRQCYSMYKLFNGTFLKAMEDGGVKLLKERLEKFFHRYLQTLHLQSCDLLDIFGGISFFPLDKMTYLKIQSFINRMEESLNIVKYTAFLYNDQLIWSGLEQDDMRILYKYLTTSLFPRHIEPELAGRDSPIRAEMPGNLQHYGRFLTGPLNLNDPDAKCRFPKIFVNTDDTYEELHLIVYKAMSAAVCFMIDASVHPTLDFCRRLDSIVGPQLTVLASDICEQFNINKRMSGSEKEPQFKFIYFNHMNLAEKSTVHMRKTPSVSLTSVHPDLMKILGDINSDFTRVDEDEEIIVKAMSDYWVVGKKSDRRELYVILNQKNANLIEVNEEVKKLCATQFNNIFFLD”, the “soluble on expression in E. coli” value was “soluble”.
For “MFSDELEKISWEETTKAIYSKTDADVRRALSKEHCDVNDFMALISPAAAPYLETMARLSRKYTMERFGKTISMFVPLYITNSCTNSCVYCGFNHNNPMKRTILTEEEMVNEYKAIKKLAPFENLLLVTGENPAKAGVDYIERALLLAKPYFANLQIEVMPLKAEEYERLTHAGLNGVICFQETYNKANYNIYHPRGMKSKFEWRVNGFDRMGQAGVHKIGMGVLIGLEEWRTDITMMAYHLRYLQKHYWKTKYSVNFPRMRPSENGGFQPNVVMNDRELAQVTFAMRIFDHDVDISYSTRESAAFRNHMATLGVTTMSAESKTEPGGYFTYPQALEQFHVSDERKAVEVDAALRSLGRIPVYKDWDTALTLPQC”, the “soluble on expression in E. coli” value was “soluble”.
With “MDPLSRDENYIQRLTPEMWREIKAASPEVTAEMLDDLKHGNTYYTGVETDKGVLIFSRDIIGEGQFSDYMYKYIENDFFASEFVLKSLAVHELRGWPSLMEGKLNRCHNRFGWWGDGETIRRAFQDRSVLKNVTDSETYDFTPPPHGRTITG” the “soluble on expression in E. coli” value was “not soluble”.
With “MNSPLAPVGVFDSGVGGLTVARAIIDQLPDEDIVYVGDTGNGPYGPLTIPEIRAHALAIGDDLVGRGVKALVIACNSASSACLRDARERYQVPVVEVILPAVRRAVAATRNGRIGVIGTRATITSHAYQDAFAAARDTEITAVACPRFVDFVERGVTSGRQVLGLAQGYLEPLQRAEVDTLVLGCTHYPLLSGLIQLAMGENVTLVSSAEETAKEVVRVLTEIDLLRPHDAPPATRIFEATGDPEAFTKLAARFLGPVLGGVQPVHPSRIH” the “soluble on expression in E. coli” value was “not soluble”.
In the case of “MAQKPLRLLACGDVEGKFDILFNRVQAIQKKSGNFDLLLCVGNFFGSTQDAEWEEYKTGIKKVPIQTYVLGANNQETVKYFQDADGCELAENITYLGRKGIFTGSSGLQIVYLSGTESLNEPVPGYSFSPKDVSSLRMMLCTTSQFKGVDILLTSPWPKCVGNFGNSSGEVDTKKCGSALVSSLATGLKPRYHFAALEKTYYERLPYRNHIILQENAQHATRFIALANVGNPEKKKYLYAFSIVPMKLMDAAELVKQPPDVTENPYRKSGQEASIGKQILAPVEESACQFFFDLNEKQGRKRSSTGRDSKSSPHPKQPRKPPQPPGPCWFCLASPEVEKHLVVNIGTHCYLALAKGGLSDDHVLILPIGHYQSVVELSAEVVEEVEKYKATLRRFFKSRGKWCVVFERNYKSHHLQLQVIPVPISCSTTDDIKDAFITQAQEQQIELLEIPEHSDIKQIAQPGAAYFYVELDTGEKLFHRIKKNFPLQFGREVLASEAILNVPDKSDWRQCQISKEDEETLARRFRKDFEPYDFTLDD”, the “soluble on expression in E. coli” value is reported as “soluble”.
In the case of “MKILILGGRFGGLQTAYDLRRYLKNKADIKIIEKNRYIYFRPALPHVGIGLERAEDLRIDLAQVLPDRGIGYIQGTVTKIDPERSLVEYSREGSGGYKEKYDFLVIALGAHLASELIAGFDKYGSSVCEADLAENMWKKLRDFKGGNITLGSAKFIQDTKNRPTNTPDRYAPIADSACEGPVFEMSIMLYDYFKARNMLDKVKMTVYSPGEYLSDLSRTSRSTVAAMYKGMNIELVDNFVVKEVTEKEVISEDGRRLPSDISFILPPYTGQKLVKDAGLGDDVGFVLTGTDMKSVKYDNVYAVGDVNALIVPKMAFLAVKTARIVAANIANRLGMSIPVEVYDPKIVCVADSPYGNYAVAVTDSTFYGGNVSEAIPSPANHLKKTLFTRYFLWSKGDLAMDKYLTSWLEHHHHHH”, the “soluble on expression in E. coli” value is reported as “not soluble”.
In the case of “MSLSATSNSNWDRRSVLRAAAGLAALGPLAACGSNTGRSGGGSSGESLVQYFHAYGEAGTEQAIRRYAKAYDKAAVTTQWITGTNFESKLFSALLTDNAPDVFEFHPQLQMIKSGQVAALDDIIDPVKDDFNPADITSHTVDGKVYGVRMIDDPQFFFYRKSLLEKAGTGVPQTLDELAEAAAKLTTDKVKGLFLGNNMVAPNYALVWAAGADQLNAKNEIAYHTDEVAAALKVYRKMFTSGHLLLDAPADYWDPSALVQGLTAIQWCGMWAMPVMQQALGDDLGIFPFPSAASGAKPAVYNGGWSMFVNAKGKNVDLAKEYVKWLWIDQKKYQEDWALSYGFHIPPRTSTAESATKLKSGLPAEGVKLFTDYGRFDNVSWTQAMISALEGVIADAVRKGKDPEAALDTADKKVNRELKNLFGEGHHHHHH”, the “soluble on expression in E. coli” value is reported as “soluble”.
With “PKLSQDEIDDLKDVFELFAFWDGRDGAVDAFKLGDVCRCLGINPRNEDVFAVGGTHKMGEKSLPFEEFLPAYEGLMDCEQGTFADYMEAFKTFDREGQGFISGAELRHVLTALGERLSDEDVDEIIKLTDLQEDLEGNVKYEDFVKKVMAGPYPDK” the “soluble on expression in E. coli” value was “soluble”.
For “MSELTQLAQQEKKQTYNFNKLQKRLRRNVGNAIADFGMIEDGDKVMVCLSGGKDSYTLLDILLNLQQSAPIKFDIVAVNLDQKQPGFPEHVLPEYLESIGVDYKIVQENTYGIVKEKIPEGKTTCSLCSRLRRGILYRTATELGATKIALGHHRDDMLATLFLNMFYGGKIKSMPPKLISDDGKQIVIRPLAYCKEKDIEKYAIAKEFPIIPCNLCGSQPNLQRQVVKEMLNTWDRQYPGRLETMFSAMQNITLSHMCDPKLFDFKGIKHGQLIDGIEGDTAFDEERITPMQFEDEDQTDFSNKEMINFKEVN”, the “soluble on expression in E. coli” value was “not soluble”.
For “MGSDKIHHHHHHVDQKEISDIVQRILQDGPQTQEDGYCLVRAQARREWSLRLNNGRFERVSTARERGIGVQAFTPEGASGFASVDALTVEAGREAMKRAMSLAEHNAKLGAELNRAIYDASPLKTEGPNPAKLEFEHFSLAELQEQVMFLHKRLLNRSPEHSWQTSYRQVEDSWCIGRTDGTLVSYVVPRAVLMHQGTVRVQGRAKSALVQRSGVDAGLLLLEKEDSDLERRGVERGEFAKQVCVAPHLPSGHYPLIIDYGLAKGLAHEAFGHAVESDHMQESVLGEAGKLRKGLQVARPGVHIIDGPLEGDWAYQPFSANGLVRETVEIVKDGVLQAGLGDIFSAHKAGMPVSGAGRAESYGHIPLPRMTNIRLLVDHVLPLAPASDLMAEISQVRQTLRAAGELHDERKHLLLLGYRGGQVNPKTGDFVFQCDGIIDVADPNLTIYQPSIFSGKILSALQAIRVGLGGGCYDAIGTCGKGGQSVPSSGGSHRYLLLDRDEYVTLGGEQ”, the “soluble on expression in E. coli” value was “not soluble”.
For “MDKSNGLRVILFPLPLQGCINPMIQLAKILHSRGFSITVIHTRFNAPKASNHPLFTFLQIPDGLSETETRTHDITLLLTLLNRSCESPFRECLTKLLQSADSETGEEKQRISCLIDDSGWIFTQPVAQSFNLPRLVLNTYKVSFFRDHFVLPQLRREMYLPLQDSEQGDDPVEEFPPLRKKDLLQILDQESEQLDSYSNMILETTKASSGLIFVSTCEELDQDSLSQAREDYQVPIFTIGPSHSYFPGSSSSLFTVDETCIPWLDKQEDKSVIYVSFGSISTIGEAEFMEIAWALRNSDQPFLWVVRGGSVVHGAEWIEQLHEKGKIVNWAPQQEVLKHQAIGGFLTHNGWNSTVESVFEGVPMICMPFVWDQLLNARFVSDVWMVGLHLEGRIERNVIEGMIRRLFSETEGKAIRERMEILKENVGRSVKPKGSAYRSLQHLIDYITYF”, the “soluble on expression in E. coli” value was “soluble”.
In the case of “MTITQKGDHHSILAKLRHRNIILAKLEKAYKIPSSNIKNIWTQLNEKIEHTIADFIRLLAKQMFINRYLKSCIRISKAEKKRDTVSLVHHLFYNNAA”, the “soluble on expression in E. coli” value is reported as “not soluble”.
With “SNTLRDFFTNETYTTIENEQHVLTEYRLPGSIERRYYSEEATAPTTVRSVQHVLLPENEEASSDKDLSILSSSFIHKVYKLADKQEAKKKRYSADVNGEKVFFVIKKGLSVNGQSAMMLSYALDSYRDDLAYTLFKQ” the “soluble on expression in E. coli” value was “not soluble”.
In the case of “MPRLENTIDIKVPVNIAYNQWTQFETFPNFMSSVLQVKQLDDSHVWWQVEIGGHAIEWETEIIEQVPDDHIAWRSVSGPRHLGLVSFKHVDIHATRVHVEIEYEADMKAEVSATMTGLLEQKISEALTCYRQLLESRKRPAGGWRGRIAVGTDNAVRHLEHHHHHH”, the “soluble on expression in E. coli” value is reported as “soluble”.
With “SGGRRWNWVQSWPVWKYFKEYFPICLVKTQDLDPGHNYIFGFHPHGIFVPGAFGNFCTKYSDFKKLFPGFTSYLHVAKIWFCFPLFREYLMSNGPVSVSKESLSHVLSKDGGGNVSIIVLGGAKEALEAHPGTFTLCIRQRKGFVKMALTHGASLVPVFSFGENDLYKQINNPKGSWLRTIQDAMYDSMGVALPLIYARGIFQHYFGIMPYRKLIYTVVGRPIPVQQILNPTSEQIEELHQTYLEELKKLFNEHKGKYGIPEHETLVFK” the “soluble on expression in E. coli” value was “soluble”.
With “MAHHHHHHMPGSELISGGWFREENDQWPGQAMSLRVEKVLYDAPTKFQHLTIFESDPKGPWGTVMALDGCIQVTDYDEFVYHEVLGHTSLCSHPKPERVLIIGGGDGGVLREVLRHGTVEHCDLVDIDGEVMEQSKQHFPQISRSLADPRATVRVGDGLAFVRQTPDNTYDVVIIDTTDPAGPASKLFGEAFYKDVLRILKPDGICCNQGESIWLDLELIEKMSRFIRETGFASVQYALMHVPTYPCGSIGTLVCSKKAGVDVTKPLRPVEDMPFAKDLKYYDSEMHKASFALPRFARHINNSE” the “soluble on expression in E. coli” value was “soluble”.
With “MNDFRPNPSLLLETSWEVCNKQGGIYTVLTSRAHEMMKRHDGRIIFIGPLLTEQEDLPTDFENTVPAILEDWHRDAAPSLDLRYVCGSWRTPGSPPVVLVDFEPLHAQKATLYYEMWEHFGIQSDKGYGDYDEASLFGIAAAQTMHSLCEYLCPEDQPAIGIFNEWMLGMGLLYSKRKTPRLKTLFLTHATTTGRSIAGNNKALYAYMPGYNGDQMAAELGVEAKHGIEKAAAHQSDTFATVSELTAKECRQLLERDPMVLPNGFEPNFVPQGEEYERRRAEARKRLLHVAEHLTGKQLPADTLLIATSGRYEYRNKGIDLFIDAASEAGRSGK” the “soluble on expression in E. coli” value was “not soluble”.
For “MKEVKVGIGDYAVGKGNGIISTYGLGSCVGITLYDRVTKVGGLLHALLPEAARYGHRGNPAKYVDTGLQLLLKEVIKLGASKFRLEAKLFGGAQMFDNIRSEELKIGEKNVQVAKRELRKLGIRLVAEDTGGKGGRTIYLDLSTGKVRMRKVTEGKVIEKVY”, the “soluble on expression in E. coli” value was “soluble”.
In the case of “MSLANGIEFNQNPASVFNSNSLDFELESQQLTQKNSSNTSSPLINLQNELAMITSSSLSETIEGLSLGYRKGSARKEEEGTTIEKLLNEMQELLTLTDSDKIKELSLKNSGLLEQHDPTLAMFGNMPKGEIVALISSLLQSKFVKIELKKKYAKLLLDLLGEDDWELALLSWLGVGELNQEGIQKIKKLYEKAKDEDSENGASLLDWFMEIKDLPEREKHLKVIIRALSFDLSYMSSFEDKVRTSSIISDLCRIIIFLSLNNYTDIIAISIKKDKDVILNEMLSIIEHVWLTEDWLLESPSRVSIVEDKHVYYFHLLKEFFASLPDACFIDNEQRSNTLLMIGKVIDYKEDVMEGHHHHHH”, the “soluble on expression in E. coli” value is reported as “soluble”.
